The numbers were not newly measured in article PMC3514595, which cites them from elsewhere.

The series addresses IL-15Rα (UniProt Q13261).
UniProt Q13261, sequence (Q13261 31-205): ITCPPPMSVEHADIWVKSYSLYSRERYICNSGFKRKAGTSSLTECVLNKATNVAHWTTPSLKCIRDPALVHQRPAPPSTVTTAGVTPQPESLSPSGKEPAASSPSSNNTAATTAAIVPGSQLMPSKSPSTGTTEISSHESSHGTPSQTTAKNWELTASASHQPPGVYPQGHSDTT

In general, Kd refers to the free concentration of one partner at which half of the binding sites on the other are occupied at equilibrium, for simple one-to-one binding. With IL-15 (from UniProt P40933), the Kd is 0.038 nM.
